From US20130336973A1
Values joined by “and” are separate entries in the source; they are usually repeats but may differ in a detail not shown here. Identical values can stand only once.

What was measured:
[1] = biological target: FcγRIIB (CD32b), Y163 allotype (UniProt P31994); test: SPR
[2] = biological target: FcγRIIIA (CD16a), F158 allotype (UniProt P08637); test: SPR
[3] = biological target: neonatal Fc receptor (FcRn) (UniProt P55899); test: SPR, Ab captured on goat anti-human IgG, FcRn flowed, pH 6.0

Sequence of FcγRIIB (CD32b), Y163 allotype (P31994 43-217 limits assumed): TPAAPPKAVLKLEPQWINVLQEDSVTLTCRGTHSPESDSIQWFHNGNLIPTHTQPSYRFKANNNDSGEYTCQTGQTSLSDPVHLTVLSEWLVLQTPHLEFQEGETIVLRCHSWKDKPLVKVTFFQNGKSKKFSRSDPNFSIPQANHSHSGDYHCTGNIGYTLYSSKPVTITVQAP
Sequence of FcγRIIIA (CD16a), F158 allotype (P08637 17-208 limits assumed): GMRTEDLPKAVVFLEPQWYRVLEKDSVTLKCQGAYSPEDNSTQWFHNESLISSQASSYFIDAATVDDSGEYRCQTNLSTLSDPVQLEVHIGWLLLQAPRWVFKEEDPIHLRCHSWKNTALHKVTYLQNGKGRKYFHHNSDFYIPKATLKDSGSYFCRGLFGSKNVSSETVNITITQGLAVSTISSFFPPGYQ

Kd [1] [µM] | Kd [2] | Kd [3] [µM] | Substance
1.2 | 0.51 µM | – | D399C_F405A_Y407V / T366L_K392C_T394W (antibody)
– | 0.46 µM | – | F405A_Y407V / T366L_K392M_T394W (antibody)
– | 0.48 µM | – | F405A_Y407V / T366L_T394W (antibody)
1.7 | – | 3.7 | Herceptin WT (antibody)
– | 0.42 µM | 5 | L351Y_F405A_Y407V / T366L_K392M_T394W (antibody)
0.92 | 0.42 µM | – | Q347R_T350V_L351Y_S400E_F405A_Y407V / T350V_K360E_T366L_N390R_K392M_T394W (antibody)
1 | – | – | T350V_F405A_Y407V / T350V_T366L_K392M_T394W (antibody)
0.99 | – | 3.9 | T350V_L351Y_F405A_Y407V / T350V_T366L_K392L_T394W (antibody)
1.2 | 0.46 µM | 4.3 | T350V_L351Y_F405A_Y407V / T350V_T366L_K392M_T394W (antibody)
0.71 | – | – | T350V_L351Y_S400E_F405A_Y407V / T350V_L351Y_T366L_N390R_K392M_T394W (antibody)
0.71 | – | – | T350V_L351Y_S400E_F405A_Y407V / T350V_T366L_N390R_K392F_T394W (antibody)
0.91 | – | – | T350V_L351Y_S400E_F405A_Y407V / T350V_T366L_N390R_K392L_T394W (antibody)
0.9 | 0.45 µM and 0.42 µM | 5 | T350V_L351Y_S400E_F405A_Y407V / T350V_T366L_N390R_K392M_T394W (antibody)
0.83 | 0.42 µM | – | T350V_L351Y_S400E_F405S_Y407V / T350V_T366L_N390R_K392M_T394W (antibody)
0.67 | – | – | T350V_L351Y_S400E_F405T_Y407V / T350V_T366L_N390R_K392M_T394W (antibody)
0.89 | – | – | T350V_L351Y_S400R_F405A_Y407V / T350V_T366L_K392M_T394W (antibody)
0.94 | – | – | T350V_L351Y_S400R_F405A_Y407V / T350V_T366L_N390D_K392M_T394W (antibody)
0.89 | 0.42 µM | – | T350V_L351Y_S400R_F405A_Y407V / T350V_T366L_N390E_K392M_T394W (antibody)
1 | 0.45 µM | – | T350V_S400E_F405A_Y407V / T350V_T366L_N390R_K392M_T394W (antibody)
– | 0.63 µM | – | Y349C_D399C_F405A_Y407V / S354C_T366L_K392C_T394W (antibody)
1.2 | 0.58 µM | – | Y349C_F405A_Y407V / S354C_T366L_T394W (antibody)
– | 0.46 µM | 4.1 | Y349C_T350V_F405A_Y407V / T350V_S354C_T366L_K392M_T394W (antibody)
0.95 | 0.42 µM | – | Y349C_T350V_L351Y_S400E_F405A_Y407V / T350V_S354C_T366L_N390R_K392M_T394W (antibody)
